One assay addresses T1, Flag-tagged Pds5a (human, UniProt Q29RF7 1-1337).
T1 sequence: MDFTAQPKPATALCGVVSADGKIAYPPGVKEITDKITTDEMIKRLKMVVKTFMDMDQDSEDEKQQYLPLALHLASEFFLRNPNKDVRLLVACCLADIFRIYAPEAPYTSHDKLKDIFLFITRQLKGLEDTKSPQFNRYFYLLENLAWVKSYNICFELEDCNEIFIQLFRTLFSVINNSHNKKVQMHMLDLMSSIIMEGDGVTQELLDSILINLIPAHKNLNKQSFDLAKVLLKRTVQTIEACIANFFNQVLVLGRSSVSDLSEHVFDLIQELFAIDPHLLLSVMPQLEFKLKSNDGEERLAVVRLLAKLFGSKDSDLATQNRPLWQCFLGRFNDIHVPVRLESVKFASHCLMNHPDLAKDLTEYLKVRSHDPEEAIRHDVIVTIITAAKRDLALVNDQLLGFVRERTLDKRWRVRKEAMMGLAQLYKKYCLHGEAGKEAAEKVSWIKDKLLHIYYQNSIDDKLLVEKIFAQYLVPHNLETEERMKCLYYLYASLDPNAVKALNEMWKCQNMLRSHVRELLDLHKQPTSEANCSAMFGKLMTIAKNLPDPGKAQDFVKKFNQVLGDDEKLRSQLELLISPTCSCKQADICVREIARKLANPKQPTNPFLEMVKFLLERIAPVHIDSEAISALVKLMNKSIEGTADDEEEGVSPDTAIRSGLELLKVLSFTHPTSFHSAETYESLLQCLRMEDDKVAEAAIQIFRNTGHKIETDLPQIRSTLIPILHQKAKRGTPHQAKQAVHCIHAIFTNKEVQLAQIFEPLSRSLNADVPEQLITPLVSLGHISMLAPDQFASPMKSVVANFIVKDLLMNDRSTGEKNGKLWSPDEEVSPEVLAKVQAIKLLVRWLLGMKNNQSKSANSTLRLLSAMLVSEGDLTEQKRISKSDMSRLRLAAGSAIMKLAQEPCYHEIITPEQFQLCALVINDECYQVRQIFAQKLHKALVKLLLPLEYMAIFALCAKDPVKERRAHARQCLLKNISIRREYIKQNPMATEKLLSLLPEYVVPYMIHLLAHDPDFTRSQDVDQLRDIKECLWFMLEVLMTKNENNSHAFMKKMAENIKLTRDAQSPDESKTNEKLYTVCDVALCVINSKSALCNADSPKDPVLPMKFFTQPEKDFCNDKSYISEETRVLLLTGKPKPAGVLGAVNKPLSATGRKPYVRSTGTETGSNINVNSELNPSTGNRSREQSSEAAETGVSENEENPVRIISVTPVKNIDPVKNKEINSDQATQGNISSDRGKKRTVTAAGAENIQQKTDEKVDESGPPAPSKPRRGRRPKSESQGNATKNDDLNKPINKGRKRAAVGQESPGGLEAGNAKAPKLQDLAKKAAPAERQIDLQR
Description: pull-down.

The target of assay [1] is T2, Flag-tagged Pds5b, co-expressed with Δ86-cyclin A2 (human, UniProt Q9NTI5 1-1447).
T2 sequence: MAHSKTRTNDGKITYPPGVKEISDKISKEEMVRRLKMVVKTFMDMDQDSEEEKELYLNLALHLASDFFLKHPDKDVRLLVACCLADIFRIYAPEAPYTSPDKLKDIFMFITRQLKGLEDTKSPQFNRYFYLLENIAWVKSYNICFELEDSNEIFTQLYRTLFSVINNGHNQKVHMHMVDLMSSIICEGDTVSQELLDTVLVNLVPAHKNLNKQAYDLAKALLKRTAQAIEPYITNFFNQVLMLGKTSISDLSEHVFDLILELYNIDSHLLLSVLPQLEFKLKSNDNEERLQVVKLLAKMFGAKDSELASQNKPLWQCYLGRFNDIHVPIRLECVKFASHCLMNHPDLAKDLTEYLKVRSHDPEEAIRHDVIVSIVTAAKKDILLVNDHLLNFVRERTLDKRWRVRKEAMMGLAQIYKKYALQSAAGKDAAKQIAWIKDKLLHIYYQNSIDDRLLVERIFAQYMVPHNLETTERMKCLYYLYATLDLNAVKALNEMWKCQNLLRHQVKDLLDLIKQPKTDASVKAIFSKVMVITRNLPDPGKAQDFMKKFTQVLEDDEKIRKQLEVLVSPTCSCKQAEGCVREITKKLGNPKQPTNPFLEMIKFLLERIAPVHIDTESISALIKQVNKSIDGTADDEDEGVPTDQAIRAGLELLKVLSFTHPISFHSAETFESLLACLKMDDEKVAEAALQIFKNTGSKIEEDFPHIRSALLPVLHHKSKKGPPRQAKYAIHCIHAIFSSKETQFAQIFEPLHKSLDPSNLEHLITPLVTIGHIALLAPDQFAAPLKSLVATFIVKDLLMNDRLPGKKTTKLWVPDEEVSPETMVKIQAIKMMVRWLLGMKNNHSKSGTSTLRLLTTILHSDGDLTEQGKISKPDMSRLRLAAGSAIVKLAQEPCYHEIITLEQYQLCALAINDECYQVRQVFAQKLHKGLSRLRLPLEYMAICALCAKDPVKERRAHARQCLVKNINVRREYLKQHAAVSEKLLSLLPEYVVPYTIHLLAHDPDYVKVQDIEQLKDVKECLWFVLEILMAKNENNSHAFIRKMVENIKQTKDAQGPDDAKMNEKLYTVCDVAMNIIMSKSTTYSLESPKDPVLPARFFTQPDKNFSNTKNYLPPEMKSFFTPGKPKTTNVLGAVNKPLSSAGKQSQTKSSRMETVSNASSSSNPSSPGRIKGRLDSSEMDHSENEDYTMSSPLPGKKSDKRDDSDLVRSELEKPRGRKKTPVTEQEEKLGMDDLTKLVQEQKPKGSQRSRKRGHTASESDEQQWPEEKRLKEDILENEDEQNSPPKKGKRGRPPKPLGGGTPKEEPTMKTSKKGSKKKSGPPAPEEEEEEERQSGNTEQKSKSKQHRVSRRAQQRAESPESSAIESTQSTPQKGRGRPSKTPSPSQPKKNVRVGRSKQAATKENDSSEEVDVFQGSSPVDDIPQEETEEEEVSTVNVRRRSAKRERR
Description: pull-down.

B1: recombinant human Wapl (natural protein)
chain: MTSRFGKTYSRKGGNGSSKFDEVFSNKRTTLSTKWGETTFMAKLGQKRPNFKPDIQEIPKKPKVEEESTGDPFGFDSDDESLPVSSKNLAQVKCSSYSESSEAAQLEEVTSVLEANSKISHVVVEDTVVSDKCFPLEDTLLGKEKSTNRIVEDDASISSCNKLITSDKVENFHEEHEKNSHHIHKNADDSTKKPNAETTVASEIKETNDTWNSQFGKRPESPSEISPIKGSVRTGLFEWDNDFEDIRSEDCILSLDSDPLLEMKDDDFKNRLENLNEAIEEDIVQSVLRPTNCRTYCRANKTKSSQGASNFDKLMDGTSQALAKANSESSKDGLNQAKKGGVSCGTSFRGTVGRTRDYTVLHPSCLSVCNVTIQDTMERSMDEFTASTPADLGEAGRLRKKADIATSKTTTRFRPSNTKSKKDVKLEFFGFEDHETGGDEGGSGSSNYKIKYFGFDDLSESEDDEDDDCQVERKTSKKRTKTAPSPSLQPPPESNDNSQDSQSGTNNAENLDFTEDLPGVPESVKKPINKQGDKSKENTRKIFSGPKRSPTKAVYNARHWNHPDSEELPGPPVVKPQSVTVRLSSKEPNQKDDGVFKAPAPPSKVIKTVTIPTQPYQDIVTALKCRREDKELYTVVQHVKHFNDVVEFGENQEFTDDIEYLLSGLKSTQPLNTRCLSVISLATKCAMPSFRMHLRAHGMVAMVFKTLDDSQHHQNLSLCTAALMYILSRDRLNMDLDRASLDLMIRLLELEQDASSAKLLNEKDMNKIKEKIRRLCETVHNKHLDLENITTGHLAMETLLSLTSKRAGDWFKEELRLLGGLDHIVDKVKECVDHLSRDEDEEKLVASLWGAERCLRVLESVTVHNPENQSYLIAYKDSQLIVSSAKALQHCEELIQQYNRAEDSICLADSKPLPHQNVTNHVGKAVEDCMRAIIGVLLNLTNDNEWGSTKTGEQDGLIGTALNCVLQVPKYLPQEQRFDIRVLGLGLLINLVEYSARNRHCLVNMETSCSFDSSICSGEGDDSLRIGGQVHAVQALVQLFLERERAAQLAESKTDELIKDAPTTQHDKSGEWQETSGEIQWVSTEKTDGTEEKHKKEEEDEELDLNKALQHAGKHMEDCIVASYTALLLGCLCQESPINVTTVREYLPEGDFSIMTEMLKKFLSFMNLTCAVGTTGQKSISRVIEYLEHC
Take B1: the binding result (with Flag-tagged Pds5a; in assay [1]) was “binds” each time.

The values are drawn from doi:10.1101/2024.03.12.584565 (bioRxiv, 2024).
